For 38 variants, self-cleavage results are on record in the RNAGym collection of RNA variant scans (doi:10.7554/elife.80360).

To fix the notation:
B1: Hairpin Ribozyme (parent)
chain: GUCCUCUUUCACGUGCGCGUGAAAGAGAGAAGUGAACCAGAGAAACACACGUUGUGGUAUAUUACCUGGUA

The variants in this series derive from B1. The series can be described thus: self-cleavage, relative activity (ratio to wild type); higher = more cleavage; co-transcriptional.
In the case of GUCCUCUUUCACGUGCGCGUGAACGAGAGAAGUGAACCAGAGAAACACACGUUGUGGUAUAUUACAUGGUA [A24C C66A], the self-cleavage was 0.187.

As for GUCCUCUUUCACGUGCGCGUGAAGGAGAGAAGUGAACCAGAGAAACACCCGUUGUGGUAUAUUACCUGGUA [A24G A49C], the self-cleavage stood at 0.163.

On to GUCCUCUUUCACGUGCGCGUGAAGGAGAGAAGUGAACCAGAGAUACACACGUUGUGGUAUAUUACCUGGUA [A24G A44U], for which the self-cleavage amounted to 0.0876.

GUCCUCUUUCACGUGCGCGUGAAGGAGAGAAGUGAACCAGAGACACACACGUUGUGGUAUAUUACCUGGUA [A24G A44C]: the self-cleavage was 0.0644.

With GUCCUCUUUCACGUGCGCGUGAACGAGAGAAGUGAACCAGAGAAACACACGUUGUUGUAUAUUACCUGGUA [A24C G56U], the self-cleavage turned out to be 0.231.

For the variant GUCCUCUUUCACGUGCGCGUGAACGAGAGAAGUGAACCAGAGAAACACACGUUGUCGUAUAUUACCUGGUA [A24C G56C], the self-cleavage worked out at 0.115.

For GUCCUCUUUCACGUGCGCGUGAACGAGAGAAGUGAACCAGAGAAACACACGUUGUAGUAUAUUACCUGGUA [A24C G56A], the self-cleavage is 0.1.

Regarding GUCCUCUUUCACGUGCGCGUGAACGAGAGAAGUGAACCAGAGAAACACACGUUCUGGUAUAUUACCUGGUA [A24C G54C], the self-cleavage came out at 0.313.

On to GUCCUCUUUCACGUGCGCGUGAACGAGAGAAGUGAACCAGAGAAACACACGUUUUGGUAUAUUACCUGGUA [A24C G54U], for which the self-cleavage turned out to be 0.534.

Turning to GUCCUCUUUCACGUGCGCGUGAACGAUAGAAGUGAACCAGAGAAACACACGUUGUGGUAUAUUACCUGGUA [A24C G27U], the self-cleavage was 0.284.

Turning to GUCCUCUUUCACGUGCGCGUGAACGAGAGAAGUGAACCAGAGAAACACACGUUGUGGUAUAUUACCUGGUC [A24C A71C], the self-cleavage stood at 1.33.

GUCCUCUUUCACGUGCGCGUGAAGGAGAGGAGUGAACCAGAGAAACACACGUUGUGGUAUAUUACCUGGUA [A24G A30G]: the self-cleavage was determined as 0.0908.

For GUCCUCUUUCACGUGCGCGUGAACGAGAGAAAUGAACCAGAGAAACACACGUUGUGGUAUAUUACCUGGUA [A24C G32A], the self-cleavage amounted to 0.161.

Regarding GUCCUCUUUCACGUGCGCGUGAACGAGAGAACUGAACCAGAGAAACACACGUUGUGGUAUAUUACCUGGUA [A24C G32C], the self-cleavage amounted to 0.131.

Turning to GUCCUCUUUCACGUGCGCGUGAACGAGAGAAGUGAACGAGAGAAACACACGUUGUGGUAUAUUACCUGGUA [A24C C38G], the self-cleavage is 0.186.

With GUCCUCUUUCACGUGCGCGUGAACGAGAGAAGUGAACUAGAGAAACACACGUUGUGGUAUAUUACCUGGUA [A24C C38U], the self-cleavage amounted to 0.5.

In the case of GUCCUCUUUCACGUGCGCGUGAAGGCGAGAAGUGAACCAGAGAAACACACGUUGUGGUAUAUUACCUGGUA [A24G A26C], the self-cleavage worked out at 0.367.

Regarding GUCCUCUUUCACGUGCGCGUGAAGGUGAGAAGUGAACCAGAGAAACACACGUUGUGGUAUAUUACCUGGUA [A24G A26U], the self-cleavage was found to be 0.661.

In the case of GUCCUCUUUCACGUGCGCGUGAAGGGGAGAAGUGAACCAGAGAAACACACGUUGUGGUAUAUUACCUGGUA [A24G A26G], the self-cleavage was 0.569.

As for GUCCUCUUUCACGUGCGCGUGAACAAGAGAAGUGAACCAGAGAAACACACGUUGUGGUAUAUUACCUGGUA [A24C G25A], the self-cleavage is 0.219.

In the case of GUCCUCUUUCACGUGCGCGUGAACGAGAGAAGUGAACCAGAGAAACACACGUUGUGGUGUAUUACCUGGUA [A24C A59G], the self-cleavage worked out at 0.0535.

Regarding GUCCUCUUUCACGUGCGCGUGAACGAGAGAAGUGAACCAGAGAAACACACGUUGUGGUAUAUUACCUGGCA [A24C U70C], the self-cleavage stood at 0.778.

GUCCUCUUUCACGUGCGCGUGAACGAGAGAAGUGAACCAGAGAAACACACGUUGUGGUAUAUUACCUGGGA [A24C U70G]: the self-cleavage worked out at 0.666.

Regarding GUCCUCUUUCACGUGCGCGUGAACGAGAGAAGUGAACCAGGGAAACACACGUUGUGGUAUAUUACCUGGUA [A24C A41G], the self-cleavage amounted to 0.846.

Consider GUCCUCUUUCACGUGCGCGUGAAGGAGAGAAGUGAGCCAGAGAAACACACGUUGUGGUAUAUUACCUGGUA [A24G A36G], for which the self-cleavage turned out to be 0.679.

Consider GUCCUCUUUCACGUGCGCGUGAAGGAGAGAUGUGAACCAGAGAAACACACGUUGUGGUAUAUUACCUGGUA [A24G A31U], for which the self-cleavage amounted to 0.111.

For the variant GUCCUCUUUCACGUGCGCGUGAAGGAGAGACGUGAACCAGAGAAACACACGUUGUGGUAUAUUACCUGGUA [A24G A31C], the self-cleavage is 0.041.

GUCCUCUUUCACGUGCGCGUGAACGAGAGAAGUGAACCAGAGAAACACACGUUGUGGUAUAUUACCUGGUA [A24C]: the self-cleavage is 0.894.

For the variant GUCCUCUUUCACGUGCGCGUGAAGGAGAGAAGUGAACCAGAGAAACACACGUUGUGGUAUAUUACCUGGUA [A24G], the self-cleavage amounted to 0.87.

Turning to GUCCUCUUUCACGUGCGCGUGAACGAGAGAAGUGACCCAGAGAAACACACGUUGUGGUAUAUUACCUGGUA [A24C A36C], the self-cleavage came out at 0.631.

As for GUCCUCUUUCACGUGCGCGUGAAGGAGAGAAGUGAACCAGAGAAACACACGUUGUGGUAUAUUAUCUGGUA [A24G C65U], the self-cleavage came out at 0.371.

As for GUCCUCUUUCACGUGCGCGUGAAGGAGAGAAGUGAACCAGAGAAACACACGUUGUGGUAUAUUAACUGGUA [A24G C65A], the self-cleavage was found to be 0.706.

Consider GUCCUCUUUCACGUGCGCGUGAAGGAGAGAAGUGAACCAGAGAACCACACGUUGUGGUAUAUUACCUGGUA [A24G A45C], for which the self-cleavage was found to be 0.235.

On to GUCCUCUUUCACGUGCGCGUGAAGGAGAGAAGUGAACCAGAGAAUCACACGUUGUGGUAUAUUACCUGGUA [A24G A45U], for which the self-cleavage came to 0.145.

With GUCCUCUUUCACGUGCGCGUGAAGGAGAGAAGUGAACCCGAGAAACACACGUUGUGGUAUAUUACCUGGUA [A24G A39C], the self-cleavage was found to be 0.384.

On to GUCCUCUUUCACGUGCGCGUGAACGAGAGAAGUGAACCAGAGAAACACACGUUGUGGCAUAUUACCUGGUA [A24C U58C], for which the self-cleavage was determined as 1.11.

Regarding GUCCUCUUUCACGUGCGCGUGAAGGAGAGAAGUGAACCAGAGAAACACAGGUUGUGGUAUAUUACCUGGUA [A24G C50G], the self-cleavage is 0.136.

For GUCCUCUUUCACGUGCGCGUGAAGGAGAGAAGUGAACCAGAGAAACACAUGUUGUGGUAUAUUACCUGGUA [A24G C50U], the self-cleavage was found to be 0.371.
